B1: LK-RB2-6 (antibody, human IgG4 S228P, kappa, V domains shown)
VH: QIQLVQSGPELKKPGETVKISCKASGYTFTTYGMSWVKQAPGKGLEWMGWINIYSGVPTYADDFKGRFAFSLETSASTAYLQINNLKNEDTATYFCARRGDYDSFYFDYWGQGTTLTVSS
VL: DIVMSQSPSSLAVSVGEKVTVSCKSSQSLLYSYNQKNYLAWYQQKPGQSPKLLIYWSSTRESGVPDRFTGSGSGTDFTLTISSVKAEDLAVYYCQQCYNYPYTFGGGTKLEIKR
B2: LK-RB2-7 (antibody, human IgG4 S228P, kappa, V domains shown)
VH: DVKLVESGEGLVKPGGSLKLSCAASGFTFSSYAMSWVRQTPEMRLEWVAYISSGGDHFYYADTVKGRFTISRDNARSTLYLQMSSLKSEDTAMYYCTREGASYDSNFLAWFAYWGQGTLVTVSA
VL: DIQMTQSPASLSVSVGETVTITCRASENIYSNLAWYQQKEGKSPQLLVYGATNLADGVPSRFSGSGSGTQYSLKINSLQSEDFGSYYCQNFWDIPLTFGAGTKLELKR
B3: LK-RB2-9 (antibody, human IgG4 S228P, kappa, V domains shown)
VH: DVQLQESGPGLVKPSQSLSLTCSVTGYSITSGYYWNWIRQFPGNKLEWMGYIGYDGNNNYNPSLKNRISITRDTSKNQFFLKLNSLTTEDTATYYCAREGSTMVTSWFAYWGQGTLVTVSA
VL: DIQMTQSPASLSVSVGETVTITCRASENIYSNLAWYQQKQGKSPQLLVYGATNLADGVPSRFSGRGSDTQYSLKINSLQSEDFGSYYCQHFWDTPYTFGGGTKLEIKR
B4: LK-RB2-10 (antibody, human IgG4 S228P, kappa, V domains shown)
VH: EVMLVESGGDLVKPGGSLKLSCAASGFTFSANTVSWLRRTPERRLEWVATISGGSDNTYCPDSVKGRFTISRDNARDTLYLQMSSLTSEDTALYFCARHYYDGPNWYFDVWGPGTTVTVSS
VL: DIVMTQSQKFMSSTGGDRVTITCKASQNVDTAVAWYQQKPGQSPKLLIYSASNRYIGVPDRFKGSGSGTDFSLTITNIQSEDLAEYFCQQYSSYPLTFGAGTKLELKR
B5: LK-RB2-11 (antibody, human IgG4 S228P, kappa, V domains shown)
VH: QIQLVQSGPELKKPGETVKISCKASGYSFITYGMSWVKQAPGKGLKWMGWINTYSGEPTYGDDFMGRFAFSLETSASTAYLQINNLKNEDTASYFCARYHYDDGMDYWGQGTSVTVSS
VL: DIKMTQSPSSMYASLGERVTITCKASQDINNYLSWFQQKPGKSPKTLIFRANRLVDGVPSRFSGSGSGQDYSLTISSLEDEDMGIYYCLQYDEFPWMFGGGTKLEIER
B6: LK-RB2-32 (antibody, human IgG4 S228P, kappa, V domains shown)
VH: DVQLQESGPGLVKPSQSLSLTCSVTGYSITSGYYWNWIRQFPGNKLEWMGYISFDGSNHYNPSLRNRISITRDTFKNQFFLKLNSVTTEDTATFYCTRRDYNWFAYWGQGTLVTVSA
VL: DIVLTQSPVTLSVTPGDSVSLSCRASQNINKNLHWYQQRSHESPRLLIKYVSQSISGIPSRFSGSGSGTDFTLSINSVETEDFGMYFCQQSNSWPLTFGAGTKLELRR
B7: LK-RB1-32 (antibody, human IgG4 S228P, kappa, V domains shown)
VH: QVQLQQSGAELAKPGASVKLSCTASGYTFTTYLMHWVKQRPAQGLEWIGYINPSNDFTKYNQKFKDKATLTADTSSSTAYMQLNSLTFEDSAVYYCARNSDYDPSYWGQGTTLTVSS
VL: DIQMTQSPASLSVSVGETVTITCRASENIYSSLAWYQQKQGKSPQLLVYAATNLADGVPSRFSGSGSGTQYSLKINSLQSEDFGNYYCQHFWGTWAFGGGTKLEIKR
B8: LK-RB1-34 (antibody, human IgG4 S228P, kappa, V domains shown)
VH: QVQLQQSGAELVKPGASVKLSCKASGYTFTEYTIHWVKQRSGQGLEWIGWFYPGSDSIKYNEKFKDKATLTADKSSSTVYMELSRLTSEDSAVYFCSRHEGPYFTSQYYFDYWGQGTTLTVSS
VL: DILLTQSPAILSVSPGERVSFSCRASRYIGTSIHWYQQRTNGSPRLLIKYASESISGIPSRFSGSGSGTDFTLSINSVESEDIADYYCQQSNTWPLTFGAGTKLELKR
B9: LK-RB1-35 (antibody, human IgG4 S228P, kappa, V domains shown)
VH: DVQLQESGPGLEKPSQSLSLTCSVTGYSITRGYQWNWIRQFPGNKLEWMGYISYDGSNNYNPSLKNRISITRDASKNQFFLKLNSVTTEDTATYYCARRSYNSIDYWGQGTTLTVSS
VL: DIVLTQSPATLSVTPGDSVSLSCRASQSISSNLHWYQQKSHESPRLLIKYASQSISGIPSRFSGSGSGTDFTLSINSVETEDFGMYFCQQSNSWPLTFGAGTKLELKR
B10: LK-RB1-36 (antibody, human IgG4 S228P, kappa, V domains shown)
VH: DVQLQESGPGLEKPSQSLSLTCSVTGYSITRGYQWNWIRQFPGNKLEWMGYISYDGSNNYNPSLKNRISIIRDTSKNQFFLKLNSVTTEDTATYYCARRSYNSIDYWGQGTTLTVSS
VL: DIVLTQSPATLSVTPGDSVSLSCRASQSISNNLHWYQQKSHESPRLLIKYASQSISGIPSRFSGSGSGTDFTLSINSVETEDFGMYFCQQSNSWPLTFGAGTKLELKR
B11: LK-RB1-37 (antibody, human IgG4 S228P, kappa, V domains shown)
VH: QVQLQQPGAELVKPGASVKLSCKASGYTFTSYWMHWVKQRPGRGPEWIGRIDPNSGYARYNEKFKNKATLTADKPSSTADMHLSSLTSEDSAVYYCTRSFITTAEWFFDVWGTGTTVTVSS
VL: DILLTQSPAILSVSPGERVSFSCRASQSIGTSIHWYQQRRNGSPRLLIKYTSESISGIPSRFSGSGSGTDFTLSINSVESEDIADYYCQQSNSWPHTFGGGTKLELKR
B12: LK-RB1-38 (antibody, human IgG4 S228P, kappa, V domains shown)
VH: DVQLQESGPGLVQPSQSLSLTCSVTGYSITSGYQWNWIRQLPGNKLEWMAYISFDGSNNYNPSLKNRISITRDTSKNQFFLKLKSVTTEDTATYYCARRDYDGVAYWGQGTLVTVSA
VL: EIVLTQSPATLSVTPGDRVSLSCRASQNISNYLHWYQQKSHGSPRLIIKYASQSISGIPSRFSGSGSGTDFTLSINSVETEDFGMYFCQQSNSWPLTFGAGTKLELKR
B13: LK-RB1-42 (antibody, human IgG4 S228P, kappa, V domains shown)
VH: QVQLQQPGAELVKPGTSVKLSCKASGYSFISYWVYWVKQRPGQGLEWIGMIHPNSGSTNFNEKFRYKATLTVDKSSSTAYIQLSSLTSEDSAVYYCGRSDDGYPYHAMDSWGQGTSVTVSS
VL: DIVMTQSQKFMSTSVGDRVSVTCKASQNVGTNVAWYQQKPGQSPKALIYSASYRFSGVPDRFTGSGSGTDFTLTIGNVQSEDLAEYFCHQYKNYPLTFGGGTKLEIKR
B14: LK-RB1-43 (antibody, human IgG4 S228P, kappa, V domains shown)
VH: EFQLQQSGPELMKPGASVKISCKASGYSFTDYNMNWVKQSNGKSLEWIGIIDPNYGTTTYNQKFKGRATLTVDQSSNTAYMQLNSLTSEDSAVYYCAREGRYSWFAYWGQGTLVTVSA
VL: DIQMTQSPGALSVSVGETVTITCRASENINSNLAWYQQKQGKSPQLLVYAATNLADGVPSRFSGSGSGTQYSLKINSLQSEDFGSYHCQHFWGTPFTFGSGTKLEIKR
B15: LK-RB1-44 (antibody, human IgG4 S228P, kappa, V domains shown)
VH: QVQLQQSGTELAKPGASVKLSCKASGYTFTNYWMHWIKQRPGQGLEWIGYVHPTSDYTKYNQKFKDKATLTADKSSSTAYMQLNSLTYEDSAVYYCTRSSLYDTNYVFDSWGQGTTLTVSS
VL: DILLTQSPAILSVSPGERVSFSCRASQSIGRSIHWFQQRTNGSPSLLIKYASESISGIPSRFSGGGSGTDFTLSISNVESEDIADYYCQQSNNWPFTFGSGTKLEIKR
B16: LK-RB1-45 (antibody, human IgG4 S228P, kappa, V domains shown)
VH: QVQLQQSGTELARPGASVKLSCKASGYTFTNFWMHWIKQRPGQGLEWIGYVNPTSDYTKYNQKFKDKATLTADKSSSTAYMQLNSLTYEDSAVYYCTRSSLYDTNYVFDSWGQGTTLTVSS
VL: DILLTQSPAILSVSPGERVSFSCRASQSIGRSIHWYQQRTNGSPRLLIKYASESISGIPSRFSGGGSGTDFTLSISNVESEDIADYYCQQSNNWPFTFGSGTKLEIKR
B17: LK-RB1-46 (antibody, human IgG4 S228P, kappa, V domains shown)
VH: EVQLQQSGPELVKPGASVKISCKTSGYTFTDYYMNWVKQSHGKSLEWIGDIYPINGDISYNQKFKGKATLTVDKSSSTVYMEIRSLTYEDSAVYYCARLAQTTSGGFDYWGQGTTLTVSS
VL: DIVLTQSPTSLAVSLGQRAIISCKASQSVSFAGTSLMHWYQQKPGQQPKLLIYRASNLKAGVPTRFSGSGSRTDFTLNIHPVEEDDAATYYCQQSREYPMYTFGGGTKLEIKR
B18: LK-RB1-55 (antibody, human IgG4 S228P, kappa, V domains shown)
VH: EVKLVESGGGLVQPGGSLKLSCAASGFTFSDYYMYWVRQTPEKRLEWVAYISNGGDITFYPDTVKGRFTISRDNARSTLYLQMSRLKSEDTAIYYCASATTEVGAMDHWGQGTSVTVSS
VL: DIVMTQSQKFMSTTVGDRVSITCKASQNVGTAVAWYQQKPGKSPKLLIYAASNRYTGVPDRFTGSGSGTDFTLTISNMQSEDLADYFCQQYSSYRTFGGGTNLEIKR
B19: LK-RB1-48 (antibody, human IgG4 S228P, kappa, V domains shown)
VH: EVKLVESGGGLVQPGGSLKLSCAASGFTFSDYYMYWVRQTPEKRLEWVAYISNGGGISFYPDTVKGRFTISRDNAKNTLYLQMSRLKSEDTAIYYCASATKEVGAMDYWGQGTSVTVSS
VL: DIVMTQSQKFLSTTVGDRVSITCKASQNVGTAVAWYQQKPGQSPKILIYSASNRYTGVPDRFTGSGSGTDFTLTISNMQSEDLADYFCQQYSSYRTFGGGTKLEIKR
B20: LK-RB1-57 (antibody, human IgG4 S228P, kappa, V domains shown)
VH: EVKLVESGGGLVQPGGSLKLSCAASGFTFSDYYMYWVRQTPEKRLEWVAYISNGGDITFYPDTVKGRFTISRDNARSTLYLQTSRLKSEDTAIYYCASATTEVGAMDHWGQGTSVTVSS
VL: DIVMTQSQKFMSTTVGDRVSITCKASQNVGTAVAWYQQKPGKSPKLLIYAASNRYTGVPDRFTGSGSGTDFTLTISNVQSEDLADYFCQQYSSYRTFGGGTSLEIKR
B21: 12D12 (antibody, human IgG4 S228P, kappa, V domains shown)
VH: QVQLQQPGAELVKPGASVRMSCKASGYTFTSYWVHWVKQRPGQGLEWIGVIDPSDSYTSYNQNFKGKATLTVDTSSKTAYIHLSSLTSEDSAVYFCARGERYDGDYFAMDYWGQGTSVTVSS
VL: DIVMTQSPASLSVSVGETVTITCRASENIYSNLAWYQQKQGKSPQLLVYAATNLADGVPSRFSGSRSGTQYSLKINSLQSEDFGTYYCQHFWNTPRTFGGGTKLEIKR

How the values were obtained:
[1] = target: T1, human LILRB2 expressed on CHOK1 cells (CHOK1-hLILRB2) (human, UniProt Q8N423 22-597); assay: FACS binding to CHOK1-hLILRB2 cells
T1 construct: whole, on cells; also called CHOK1-LILRB2
T1 sequence (Q8N423 22-597): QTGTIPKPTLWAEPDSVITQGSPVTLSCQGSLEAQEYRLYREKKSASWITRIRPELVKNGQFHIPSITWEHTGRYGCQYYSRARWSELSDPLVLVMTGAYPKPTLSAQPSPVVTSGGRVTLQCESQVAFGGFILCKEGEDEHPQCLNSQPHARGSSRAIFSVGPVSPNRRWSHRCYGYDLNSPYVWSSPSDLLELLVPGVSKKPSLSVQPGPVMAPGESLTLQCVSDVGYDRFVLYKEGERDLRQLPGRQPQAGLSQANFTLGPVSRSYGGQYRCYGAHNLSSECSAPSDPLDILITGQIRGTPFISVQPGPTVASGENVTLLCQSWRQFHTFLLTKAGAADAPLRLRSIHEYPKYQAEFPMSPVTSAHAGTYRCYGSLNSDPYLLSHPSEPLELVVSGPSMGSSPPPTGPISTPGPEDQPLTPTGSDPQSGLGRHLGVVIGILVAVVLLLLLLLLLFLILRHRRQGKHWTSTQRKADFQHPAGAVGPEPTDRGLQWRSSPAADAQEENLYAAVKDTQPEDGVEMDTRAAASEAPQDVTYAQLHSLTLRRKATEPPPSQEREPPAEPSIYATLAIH

[2] = target: T2, human LILRB1 expressed on CHOK1 cells (CHOK1-hLILRB1) (human, UniProt Q8NHL6 24-650); assay: FACS binding to CHOK1-hLILRB1 cells
T2 construct: whole, on cells; also called CHOK1-LILRB1
T2 sequence (Q8NHL6 24-650): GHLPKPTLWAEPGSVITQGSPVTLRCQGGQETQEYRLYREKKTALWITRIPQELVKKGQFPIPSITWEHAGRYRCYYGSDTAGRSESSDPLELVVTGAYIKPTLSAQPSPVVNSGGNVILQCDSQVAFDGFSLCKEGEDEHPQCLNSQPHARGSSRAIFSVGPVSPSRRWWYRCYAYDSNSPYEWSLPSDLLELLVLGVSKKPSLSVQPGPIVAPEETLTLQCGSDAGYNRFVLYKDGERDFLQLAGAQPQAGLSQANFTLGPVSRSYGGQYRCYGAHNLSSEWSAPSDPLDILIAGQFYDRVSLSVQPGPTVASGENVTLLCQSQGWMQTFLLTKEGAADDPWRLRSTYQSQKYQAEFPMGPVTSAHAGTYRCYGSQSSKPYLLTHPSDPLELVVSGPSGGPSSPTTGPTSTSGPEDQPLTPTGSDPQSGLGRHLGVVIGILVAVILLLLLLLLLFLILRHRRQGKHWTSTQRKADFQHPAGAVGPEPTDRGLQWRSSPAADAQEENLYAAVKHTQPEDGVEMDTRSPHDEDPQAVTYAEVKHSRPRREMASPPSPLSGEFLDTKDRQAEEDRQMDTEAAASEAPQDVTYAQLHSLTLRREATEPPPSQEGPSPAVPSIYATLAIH

human LILRB1 = target: T3, human LILRB1 (human, UniProt Q8NHL6 24-458, limits assumed); assay: Octet off-rate ranking;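 also: antibody dissociation rate constants against cynomolgus LILRB2 plus human LILRB1, LILRB2, LILRA1 and LILRA2, measured on an Octet instrument to rank binding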
T3 construct: also called hLILRB1
T3 sequence (Q8NHL6 24-458 limits assumed): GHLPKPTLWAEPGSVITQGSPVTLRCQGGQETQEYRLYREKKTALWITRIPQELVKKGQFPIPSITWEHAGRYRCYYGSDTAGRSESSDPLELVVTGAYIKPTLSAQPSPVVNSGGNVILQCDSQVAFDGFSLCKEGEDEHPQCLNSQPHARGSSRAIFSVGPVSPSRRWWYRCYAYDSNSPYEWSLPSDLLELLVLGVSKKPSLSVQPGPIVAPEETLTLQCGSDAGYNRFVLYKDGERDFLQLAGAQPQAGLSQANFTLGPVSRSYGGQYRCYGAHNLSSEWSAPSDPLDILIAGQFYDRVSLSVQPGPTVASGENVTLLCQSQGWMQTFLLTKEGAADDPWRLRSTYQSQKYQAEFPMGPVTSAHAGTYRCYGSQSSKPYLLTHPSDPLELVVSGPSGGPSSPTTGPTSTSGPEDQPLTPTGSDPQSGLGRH
From the text: Binding affinity of anti-LILRB1 and anti-LILRB2 antibodies against human LILRB1, LILRB2, LILRA1, LILRA2 and cynomolgus LILRB2 was ranked by measuring dissociation rate constant (Kdis) using the Octet system.

Binder | koff (human LILRB1) | other results
B1 | – | EC50 [1]: 0.66 nM; binding result [2]: no binding
B2 | – | EC50 [1]: 0.25 nM; binding result [2]: no binding
B3 | – | EC50 [1]: 0.17 nM; binding result [2]: no binding
B4 | – | EC50 [1]: 0.27 nM; binding result [2]: no binding
B5 | – | EC50 [1]: 0.27 nM; binding result [2]: no binding
B6 | – | EC50 [2]: 4.54 nM
B7 | 3.66e-05 s⁻¹ | –
B8 | 0.000222 s⁻¹ | –
B9 | 0.00116 s⁻¹ | –
B10 | 0.00121 s⁻¹ | –
B11 | 3.91e-05 s⁻¹ | –
B12 | 0.000532 s⁻¹ | –
B13 | 0.000139 s⁻¹ | –
B14 | 0.000364 s⁻¹ | –
B15 | 0.000559 s⁻¹ | –
B16 | 0.000611 s⁻¹ | –
B17 | 0.000739 s⁻¹ | –
B18 | < 1e-07 s⁻¹ | –
B19 | 8.47e-06 s⁻¹ | –
B20 | < 1e-07 s⁻¹ | –
B21 | 0.000338 s⁻¹ | –
